Results published in the DeepSol protein solubility set.

Experiment: soluble on expression in E. coli; label from the status in PepcDB or PDB records

Sequence	soluble on expression in E. coli
MIKRGFPAVLDENTEILILGSLPSDESIRKQQYYGNPGNDFWRLVGHAIGENLQDMAYEKKLKTLKHNRIGLWDVFKAGSREGSQDSKIGDEEINDFSGLKEMVPKLRLICFNGRKAGEYEPLLRGMGYETKVLPSSSGANRRFSKNRESEWEAVFRHLEHHHHHH	soluble
GMQYATLELNNAFKVLFSLRQVQAAEMVIAPGDREGGPDNRHRGADQWLFVVDGAGEAIVDGHTQALQAGSLIAIERGQAHEIRNTGDTPLKTVNFYHPPAYDAQGEPLPAGEG	soluble
MGSDKIHHHHHHMTTSATKEALFSPDCLEFLAKLASNNERDWFKAHQAEYEAKVRTPALNFIGAMAPHIQQLSPRLTAVPKKVGGSLMRPQRDARFSSDKTPYKVNVGIQFRHFQGKDVHAPGLYLHIANDGCFLGAGIWHPDSKALSQIRSCIDDNPNAYKQALKQLSAAGFAMEGDSLQRPPKGYDKHHPMLDELKRKDFIAIKPLDTQQLFTKDFDTWCAEQFNQVNKLMGYLCFALDLDY	not soluble
MGSDKIHHHHHHALLWFSRFQRTGKLCVSLGWLLLTLLSLQPVADSLLKPIEDTYPTWRGEQPVNYVVVLGGGYTWNPEWAPSSNLINNSLPRLTEGIRLWQANPGSKMIFTGAAAKTNPVSTAEAGARVAESLGVPRSDIIVLDRPKDTEEEALAVKRAIGDAPFLLVTSASHLPRAMIFFRHAGLDPLPAPANQLAVTSPLNPWERAIPSPVWLMHSDRVGYETLGRVWQWLKGSSGEPGQE	not soluble
MSLNNKVIKKEVEEYLSRYFEGKDNYNKRVYESMNYSLNAGGKRVRPLLLLASYAIYNKDYKEVIDIAAAIEMIHTYSLIHDDLPCMDNDDLRRGRPTNHKIFGYSIALLAGDGLLNEAMNIMFKYCIGKGEEALKACLMISKAASSDGMIGGQVVDILSEGKKINEDELRYMHKKKTGELIKAAVVSGAILGGAPLHDVELLSQYGDKLGLAFQIEDDILDIIGDTKIMGKTSKSDLENDKCTYVTLYGIDKCKSICRELTDECLDIIGKIQGNTELLKEITELLLKRNREGHHHHHH	soluble
MAETKIVVGPQPFSVGEEYPWLAERDEDGAVVTFTGKVRNHNLGDSVNALTLEHYPGMTEKALAEIVDEARNRWPLGRVTVIHRIGELWPGDEIVFVGVTSAHRSSAFEAGQFIMDYLKTRAPFWKREATPEGDRWVEARESDQQAAKRW	soluble
MANLCKRVVDLEKYIVKEAPPTVYYIPDFISEAEEEFLLQQVYRAPKPKWTQLSGRRLQNWGGLPNPKGMLAEKLPDWLLEYTEKISALGAFAGKTANHVLVNEYKPGEGIMPHEDGPLYHPTVTTITVGSHTLLDFYRPVCQAEPDAPQTEESRYMLSLLVQRKSLLILQDDMYKCYLHGIRGVCEDVLSEHVVNISSTGAQVGDTLPRSTRVSLTIRHVPKIIRANLFLGKK	not soluble
MTIEKIFTPQDDAFYAVITHAAGPQGALPLTPQMLMESPSGNLFGMTQNAGMGWDANKLTGKEVLIIGTQGGIRAGDGRPIALGYHTGHWEIGMQMQAAAKEITRNGGIPFAAFVSDPCDGRSQGTHGMFDSLPYRNDAAIVFRRLIRSLPTRRAVIGVATCDKGLPATMIALAAMHDLPTILVPGGATLPPTVGEDAGKVQTIGARFANHELSLQEAAELGCRACASPGGGCQFLGTAGTSQVVAEALGLALPHSALAPSGQAVWLEIARQSARAVSELDSRGITTRDILSDKAIENAMVIHAAFGGSTNLLLHIPAIAHAAGCTIPDVEHWTRINRKVPRLVSVLPNGPDYHPTVRAFLAGGVPEVMLHLRDLGLLHLDAMTVTGQTVGENLEWWQASERRARFRQCLREQDGVEPDDVILPPEKAKAKGLTSTVCFPTGNIAPEGSVIKATAIDPSVVGEDGVYHHTGRVRVFVSEAQAIKAIKREEIVQGDIMVVIGGGPSGTGMEETYQLTSALKHISWGKTVSLITDARFSGVSTGACFGHVSPEALAGGPIGKLRDNDIIEIAVDRLTLTGSVNFIGTADNPLTPEEGARELARRQTHPDLHAHDFLPDDTRLWAALQSVSGGTWKGCIYDTDKIIEVINAGKKALGI	not soluble
MGSDKIHHHHHHMRQFAKPTIVVSKCLEFDACRYNGEMIPDVTIRNLQPFVTFIPVCPEVEIGLGTPRETIRIVEEKGVNKLMQPSTREDLTGKMEQFSNKFLQTISDVDGFILKNRSPSCGTRDVKIYSGFEKAPAKGKGPGLFGGAVIKNFSHLPIEEEGRLSNFIIREHFLTRLFTIAYYKMMKRNKNMKDLVSFQSDNKYLFMAYNQVKQKELGRIIANHKNEKIEVVFENYEKTLYELFMRTPRYTSNVNVCEHIFGYFKTKLKKQEKDHFLDLIQKYKEKKIPLSSLLAILKSWALRFDEKYLLRQTYFEPYPEALVEISDSGKGRDY	not soluble
MSLHPADFIEKPPRFPVVDGHVDLVYDLMRRHPGIPFEQVADGQVTAQSLKKGGVWVLVAALYCADSHNGPASAAREMRRLHDYACRYLEWFALLRSPGEMAAALGGSGPPGIVFLVENADALLELDLDEVRRWGVRAVGLTHAGRNRLADGNGVTDPKGLTAAGKSLVRSIAGAGLILDVAHLAEPGFREVASLVTGPLISSHTGLRSFCDRPRNLSDPQVAEIARRGGVVGISAAPEMLVPGGTATLDDLFRQVDHVVQRHGPEAVGIGSDFGGFDDTAKGAEDHGGLPLLAERLLGAGYPAGAVGLIMGGNWCRIYGGIEGHHHHHH	soluble
MLPLIRKMKPTDAAALTIINKEQLGYEVPVDVTCKQIEKLLLASDREFLYVYEETKTGKILGYVHAQLYETIYSQTLLNVLGLAVAKEAEGRGIGKQLMTKLETEAKKCNLSAIRLNSGEQRTAAHQFYEHIGYVSDKKQKRFIKYLDT	not soluble
MEFRVYAGREELAGLVKPMRGGDVEIRIQPVERKVLEFVPLKAETAIEERKSIIVGLDPGITVGIAAIDLDGNIISVYSEKNMALSEIVRFISELGHPIIVATDVNPAPGLVEKIARSFKAQLFVPRESLKVEEKNELLKNLGISVSDDHQRDALEHHHHHH	not soluble
WLRDVLDSEAFRHTQATLPMALGKDISGQPIVVDMAKMPHLLVAGQTGGGKSVGINTMILSLLFKLTPEQVRFIMIDPKVVELSVYNDIPHLLTPVVTDMKKAANALRWAVGEMERRYLLISHLQVRNIEGYNDKIDQASAMNFPIPDPTWRPADSIGQLPPPLTKLSYIVLIVDEFADLIMSAGKEVEEYIMRIAQKARAVGIHLILATQRPST	not soluble
MSLADKLSLETLESWLWESANILRGSIDSSDFKNYIFGLLFLKRYNDVFDERVTKLREEENLSYGEAQEEIEDKWGKYPISARWFDLISRTENIGEALDKAFATIEANNPELQHVLTATQYGDKRVLADATLQRLLRHFNQYKLGNDDLYKADMLGDAYEYLIKQFADDAGKKGGEFYTPKAVVQLVVELIDPRPGHSVYDPTCGSGGMLVESAHHVSGLPDGTLMGKPNVLLYGQEKNLGTWAIAKLNLYLHNMHASIERGDTLVEPKHLDGDYLKTFDRVIANPPFSAKSWWTPLELSNENEQENGKKVKAPNYKQVSDPYGRLVYGVPPRGYADLAFAQHMLASLKADGRMGVILPHGVLFRSGEEGKIREGLLFGTGAASGNQPGDVIEAIVGLPSALFYNTGIPACVLILNKQKPSALKDKVIIIDGSRDYLEGKAQNSLHAEDILRIVSTHKAAFEQQVEVENYCRLVTLDEIRSNDGNLNIVRYIDNGESDEVVNVAATLAHMATLAKEEAQIDQRLNRYLMELGLLETGEGHHHHHH	soluble
MTPDWFAVVDATWPAADSRTDGTLTLREGRGGGKRVSAASASGAVSEPQIEAAEAAMRQMGQPPLFQLRPGDEGLDAALAGRGYSIVDPVNIYACPVSQLTDLPMPRVTVFALWEPLAIMRELWAEGGIGPGRLAVMDRVKGPKTGLLMRHQDKPGGVAFVAIHDGVAMLHALEIPPHQRRKGLGKWAMRGAAFWALDNGAHTLSVICTKANEGANALYRSLGMQLVGEYHYRLLQEERQTA	not soluble
MNGRSLIFSILFVFSELKCDDTDENDQHGTIYQFQAKNIDGKMVSMEKYRDKVVLFTNVASYCGYTDSNYNAFKELDGIYREKGFRVAAFPCNQFEKQEPETEGKILDFVKSSYTYAPDMYSKIEVNGQNTHPLWKFLKKERGSSLSADIPWNFSKFLVDKNGHVVGRYSHSVNPIDLEEEISRLLNS	not soluble
MHTQVHTARLVHTADLDSETRQDIRQMVTGAFAGDFTETDWEHTLGGMHALIWHHGAIIAHAAVIQRRLIYRGNALRCGYVEGVAVRADWRGQRLVSALLDAVEQVMRGAYQLGALSSSARARRLYASRGWLPWHGPTSVLAPTGPVRTPDDDGTVFVLPIDISLDTSAELMCDWRAGDVW	soluble
MGSDKIHHHHHHMIKALNIVTKTGTELQGALFKAAHATTVLIAITGVHGNFYSNPFYVNIGKTLMAAGIDFIYAQTRDAFNQVVSLNHLTGKKELVGSWSEQFDDANEDIAAYLSYAEENQYQHIILGGHSLGANKVIYYLANHADVNVTKFLLLSPANLKRLTDMVSLSERNIIQKQIAAGNSNQLLPFELFGWLPCTAKTADQWLNSGILDNVHSDLRADFSQIERIRLSGAMVIGTLDTFTYGDPIKYLKTINAHFLSHAENDLVFIQKTGHTYQNKDQKLANEILKLIKNWSLGGN	not soluble
MERAESSSTEPAKAIKPIDRKSVHQICSGQVVLSLSTAVKELVENSLDAGATNIDLKLKDYGVDLIEVSDNGCGVEEENFEGLTLKHHTSKIQEFADLTQVETFGFRGEALSSLCALSDVTISTCHASAKVGTRLMFDHNGKIIQKTPYPRPRGTTVSVQQLFSTLPVRHKEFQRNIKKEYAKMVQVLHAYCIISAGIRVSCTNQLGQGKRQPVVCTGGSPSIKENIGSVFGQKQLQSLIPFVQLPPSDSVCEEYGLSCSDALHNLFYISGFISQCTHGVGRSSTDRQFFFINRRPCDPAKVCRLVNEVYHMYNRHQYPFVVLNISVDSECVDINVTPDKRQILLQEEKLLLAVLKTSLIGMFDS	soluble
MNVVNNSRDVIYSSGIVFGTSGARGLVKDFTPQVCAAFTVSFVAVMQEHFSFDTVALAIDNRPSSYGMAQACAAALADKGVNCIFYGVVPTPALAFQSMSDNMPAIMVTGSHIPFERNGLKFYRPDGEITKHDEAAILSVEDTCSHLELKELIVSEMAAVNYISRYTSLFSTPFLKNKRIGIYEHSSAGRDLYKPLFIALGAEVVSLGRSDNFVPIDTEAVSKEDREKARSWAKEFDLDAIFSTDGDGDRPLIADEAGEWLRGDILGLLCSLALDAEAVAIPVSCNSIISSGRFFKHVKLTKIGSPYVIEAFNELSRSYSRIVGFEANGGFLLGSDICINEQNLHALPTRDAVLPAIMLLYKSRNTSISALVNELPTRYTHSDRLQGITTDKSQSLISMGRENLSNLLSYIGLENEGAISTDMTDGMRITLRDGCIVHLRASGNAPELRCYAEANLLNRAQDLVNTTLANIKKRCLL	not soluble
METAPDEAPTEFLEPGEEIVENVIEEEVVHEEDVEHHEEDGEMIEVQHEEVLEEIVEEDGMMFDTDGRVIEYSDVMVYEEGTEVIEEYVEVEDLGDGRYAYVMTDDIGHRRLLKPHEVEAVKKMPGMMEEEVVMDDEKAPNTSYAAAQKRGRFPPQARSSLSPQKPRAAGAYMGPEAYYQQPKRMTHMAKVDVEKYSPVTPVNRRPLMDNAIFKSKLPRKSAPWQEETAANGGPQSTSLIRSPSPMLKEPLFDDNEIRFKCAECGDGFPVMDRLCDHMIKQHDCQTNVREVQFFADRDFENFLLKVEKATLGRDPEDAIRKKSRAGSSQLFVCNYMNKGRQKMAELVEVGIVGLSERPLEVCTAFVQKTHGYECIRVKYCDQHIHYDGNIGFRVPIAVKRRLFEMSFKRLPIPCMQIMLGLEAEQLLPHPTRFEEKLKNLSHVEIIELLQIINASLRKHQEVEPRGKKVPIKFETIKSSEGSQTLMVKRVTPPKKEHMDYDEPDPNIPSTSAQALGYNPDDDEGDDVPMMSREEEVLDDETGEESVMTEDCDGMMEDNMCSFLVFFCWRKNGEK	not soluble
